# Source: patent US20230322940A1 (published 2023)
# B1: fusion protein shown in SEQ ID NO. 3 (anti-CD44 single-chain antibody, CD28, CD3), expressed on CAR-T 1 cells (other)
# chain: QVQLVESGGGVVQPGRSLRLSCAASGFTFSSYGMHWVRQAPGKGLEWVAVIWYDGSNKFYADSVKGRFTISRDNSKNTLYLQMNSLRAEDTAVYYCARRSDYRGYYGMDVWGQGTTVTVSSGSTSGGGSGGGSGGGGSSEIVLTQSPATLSLSPGERATLSCRASQSVINYLAWYQQKPGQAPRLLIYDASNRASGIPARFSGSGSGTDFTLTISSLEPEDFAVYYCQQRRNWPLTFGGGTKVEIKTTTPAPRPPTPAPTIASQPLSLRPEACRPAAGGAVHTRGLDFACDIYIWAPLAGTCGVLLLSLVITLYCRSKRSRLLHSDYMNMTPRRPGPTRKHYQPYAPPRDFAAYRSRVKFSRSADAPAYKQGQNQLYNELNLGRREEYDVLDKRRGRDPEMGGKPRRKNPQEGLYNELQKDKMAEAYSEIGMKGERRRGKGHDGLYQGLSTATKDTYDALHMQALPPR
# B2: fusion protein shown in SEQ ID NO. 5 (anti-CD44 single-chain antibody, CD28, truncated body of IL7Rα, CD3), expressed on CAR-T 3 cells (other)
# chain: QVQLVESGGGVVQPGRSLRLSCAASGFTFSSYGMHWVRQAPGKGLEWVAVIWYDGSNKFYADSVKGRFTISRDNSKNTLYLQMNSLRAEDTAVYYCARRSDYRGYYGMDVWGQGTTVTVSSGSTSGGGSGGGSGGGGSSEIVLTQSPATLSLSPGERATLSCRASQSVINYLAWYQQKPGQAPRLLIYDASNRASGIPARFSGSGSGTDFTLTISSLEPEDFAVYYCQQRRNWPLTFGGGTKVEIKTTTPAPRPPTPAPTIASQPLSLRPEACRPAAGGAVHTRGLDFACDIYIWAPLAGTCGVLLLSLVITLYCRSKRSRLLHSDYMNMTPRRPGPTRKHYQPYAPPRDFAAYRSKKRIKPIVWPSLPDHKKTLEHLCKKPRKNLNVSFNPESFLDCQIHRVDDIQARDEVEGFLQDTFPQQLEESEKQRLLGSNQEEAYVTMSSFYQNQRVKFSRSADAPAYKQGQNQLYNELNLGRREEYDVLDKRRGRDPEMGGKPRRKNPQEGLYNELQKDKMAEAYSEIGMKGERRRGKGHDGLYQGLSTATKDTYDALHMQALPPR
# B3: fusion protein shown in SEQ ID NO. 6 (anti-CD44 single-chain antibody, CD28, CD3, T2A, anti-TIM3 single-chain antibody), expressed on CAR-T 4 cells (other)
# chain: QVQLVESGGGVVQPGRSLRLSCAASGFTFSSYGMHWVRQAPGKGLEWVAVIWYDGSNKFYADSVKGRFTISRDNSKNTLYLQMNSLRAEDTAVYYCARRSDYRGYYGMDVWGQGTTVTVSSGSTSGGGSGGGSGGGGSSEIVLTQSPATLSLSPGERATLSCRASQSVINYLAWYQQKPGQAPRLLIYDASNRASGIPARFSGSGSGTDFTLTISSLEPEDFAVYYCQQRRNWPLTFGGGTKVEIKTTTPAPRPPTPAPTIASQPLSLRPEACRPAAGGAVHTRGLDFACDIYIWAPLAGTCGVLLLSLVITLYCRSKRSRLLHSDYMNMTPRRPGPTRKHYQPYAPPRDFAAYRSRVKFSRSADAPAYKQGQNQLYNELNLGRREEYDVLDKRRGRDPEMGGKPRRKNPQEGLYNELQKDKMAEAYSEIGMKGERRRGKGHDGLYQGLSTATKDTYDALHMQALPPREGRGSLLTCGDVEENPGPMTNKCLLQIALLLCFSTTALSQVQLQQSGPGLVKPSHTLSLTCTVSGGSISSGGYYWSWTRQHPGMGLEWIGYISYSGSIYYTPSLKSRLTISVDTSKNQFSLKLSSVTAADTAVYYCASLDSWGSNRDYWGQGTLVTVSSGGGGSEIVLTQSPATLSLSPGERATLSCRASQSVSSYLAWYQQKPGQAPRLLIYDASNRATGIPARFSGSGSGTDFTLTISSLEPEDFAVYYCQQRSNWPLTFGGGTKVEIK
# B4: fusion protein shown in SEQ ID NO. 7 (anti-CD44 single-chain antibody, CD28, truncated body of IL7Rα, CD3, T2A, anti-TIM3 single-chain antibody), expressed on … (other)
# chain: QVQLVESGGGVVQPGRSLRLSCAASGFTFSSYGMHWVRQAPGKGLEWVAVIWYDGSNKFYADSVKGRFTISRDNSKNTLYLQMNSLRAEDTAVYYCARRSDYRGYYGMDVWGQGTTVTVSSGSTSGGGSGGGSGGGGSSEIVLTQSPATLSLSPGERATLSCRASQSVINYLAWYQQKPGQAPRLLIYDASNRASGIPARFSGSGSGTDFTLTISSLEPEDFAVYYCQQRRNWPLTFGGGTKVEIKTTTPAPRPPTPAPTIASQPLSLRPEACRPAAGGAVHTRGLDFACDIYIWAPLAGTCGVLLLSLVITLYCRSKRSRLLHSDYMNMTPRRPGPTRKHYQPYAPPRDFAAYRSKKRIKPIVWPSLPDHKKTLEHLCKKPRKNLNVSFNPESFLDCQIHRVDDIQARDEVEGFLQDTFPQQLEESEKQRLLGSNQEEAYVTMSSFYQNQRVKFSRSADAPAYKQGQNQLYNELNLGRREEYDVLDKRRGRDPEMGGKPRRKNPQEGLYNELQKDKMAEAYSEIGMKGERRRGKGHDGLYQGLSTATKDTYDALHMQALPPREGRGSLLTCGDVEENPGPMTNKCLLQIALLLCFSTTALSQVQLQQSGPGLVKPSHTLSLTCTVSGGSISSGGYYWSWTRQHPGMGLEWIGYISYSGSIYYTPSLKSRLTISVDTSKNQFSLKLSSVTAADTAVYYCASLDSWGSNRDYWGQGTLVTVSSGGGGSEIVLTQSPATLSLSPGERATLSCRASQSVSSYLAWYQQKPGQAPRLLIYDASNRATGIPARFSGSGSGTDFTLTISSLEPEDFAVYYCQQRSNWPLTFGGGTKVEIK
# B5: fusion protein shown in SEQ ID NO. 8 (anti-CD44 single-chain antibody, anti-CD133 single-chain antibody, CD28, truncated body of IL7Rα, CD3, T2A, anti-TIM3 … (other)
# chain: QVQLVESGGGVVQPGRSLRLSCAASGFTFSSYGMHWVRQAPGKGLEWVAVIWYDGSNKFYADSVKGRFTISRDNSKNTLYLQMNSLRAEDTAVYYCARRSDYRGYYGMDVWGQGTTVTVSSGSTSGGGSGGGSGGGGSSEIVLTQSPATLSLSPGERATLSCRASQSVINYLAWYQQKPGQAPRLLIYDASNRASGIPARFSGSGSGTDFTLTISSLEPEDFAVYYCQQRRNWPLTFGGGTKVEIKGGGGSGGGGSGGGGSQVQLVQSGAEVKKPGASVKVSCKASGYTFTDFEMHWVRQAPGQGLEWMGDIDPGTGDTAYNLKFKGRVTMTTDTSTSTAYMELRSLRSDDTAVYYCALGAFVYWGQGTLVTVSSGSTSGGGSGGGSGGGGSSDVVMTQSPLSLPVTPGEPASISCRSSQSLANSYGNTYLSWYLQKPGQSPQLLIYGISNRFSGVPDRFSGSGSGTDFTLKISRVEAEDVGVYYCLQGTHQPYTFGQGTKLEIKTTTPAPRPPTPAPTIASQPLSLRPEACRPAAGGAVHTRGLDFACDIYIWAPLAGTCGVLLLSLVITLYCRSKRSRLLHSDYMNMTPRRPGPTRKHYQPYAPPRDFAAYRSKKRIKPIVWPSLPDHKKTLEHLCKKPRKNLNVSFNPESFLDCQIHRVDDIQARDEVEGFLQDTFPQQLEESEKQRLLGSNQEEAYVTMSSFYQNQRVKFSRSADAPAYKQGQNQLYNELNLGRREEYDVLDKRRGRDPEMGGKPRRKNPQEGLYNELQKDKMAEAYSEIGMKGERRRGKGHDGLYQGLSTATKDTYDALHMQALPPREGRGSLLTCGDVEENPGPMTNKCLLQIALLLCFSTTALSQVQLQQSGPGLVKPSHTLSLTCTVSGGSISSGGYYWSWTRQHPGMGLEWIGYISYSGSIYYTPSLKSRLTISVDTSKNQFSLKLSSVTAADTAVYYCASLDSWGSNRDYWGQGTLVTVSSGGGGSEIVLTQSPATLSLSPGERATLSCRASQSVSSYLAWYQQKPGQAPRLLIYDASNRATGIPARFSGSGSGTDFTLTISSLEPEDFAVYYCQQRSNWPLTFGGGTKVEIK
# B6: fusion protein shown in SEQ ID NO. 4 (anti-CD44 single-chain antibody, anti-CD133 single-chain antibody, CD28, CD3), expressed on CAR-T 2 cells (other)
# chain: QVQLVESGGGVVQPGRSLRLSCAASGFTFSSYGMHWVRQAPGKGLEWVAVIWYDGSNKFYADSVKGRFTISRDNSKNTLYLQMNSLRAEDTAVYYCARRSDYRGYYGMDVWGQGTTVTVSSGSTSGGGSGGGSGGGGSSEIVLTQSPATLSLSPGERATLSCRASQSVINYLAWYQQKPGQAPRLLIYDASNRASGIPARFSGSGSGTDFTLTISSLEPEDFAVYYCQQRRNWPLTFGGGTKVEIKGGGGSGGGGSGGGGSQVQLVQSGAEVKKPGASVKVSCKASGYTFTDFEMHWVRQAPGQGLEWMGDIDPGTGDTAYNLKFKGRVTMTTDTSTSTAYMELRSLRSDDTAVYYCALGAFVYWGQGTLVTVSSGSTSGGGSGGGSGGGGSSDVVMTQSPLSLPVTPGEPASISCRSSQSLANSYGNTYLSWYLQKPGQSPQLLIYGISNRFSGVPDRFSGSGSGTDFTLKISRVEAEDVGVYYCLQGTHQPYTFGQGTKLEIKTTTPAPRPPTPAPTIASQPLSLRPEACRPAAGGAVHTRGLDFACDIYIWAPLAGTCGVLLLSLVITLYCRSKRSRLLHSDYMNMTPRRPGPTRKHYQPYAPPRDFAAYRSRVKFSRSADAPAYKQGQNQLYNELNLGRREEYDVLDKRRGRDPEMGGKPRRKNPQEGLYNELQKDKMAEAYSEIGMKGERRRGKGHDGLYQGLSTATKDTYDALHMQALPPR
# Target: CD44 on CD44-positive and CD133-positive glioma stem cells GSC20 (UniProt P16070 21-742)
# Assay: cell-based or functional assay
Binder,"Lysis rate of glioma stem cells by CAR-T cells (LDH release), effect-target ratio 1:1 [%]","Lysis rate of glioma stem cells by CAR-T cells (LDH release), effect-target ratio 2:1 [%]","Lysis rate of glioma stem cells by CAR-T cells (LDH release), effect-target ratio 3:1 [%]","Lysis rate of glioma stem cells by CAR-T cells (LDH release), effect-target ratio 5:1 [%]"
B1,9.93,12.2,35,57.3
B2,15.2,35.2,44,62.5
B3,22.2,37.3,56.2,61.4
B4,30.3,48.5,51.2,81.2
B5,31.1,50,62.8,86.8
B6,14,23.2,41,56.9
